Test results as given in the supplement of paper PMC10567573.
± gives the standard deviation.

Test: protein stability index of a GFP-peptide fusion (GPS, HEK-293T) (PSI 1-6); higher = more stable
[1] = treatment: DMSO, c terminus: a fixed tail appended
[2] = treatment: MLN4924 1 uM, 8 h, c terminus: a fixed tail appended
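Note: 24-mer peptide tiles fused after GFP, lentivirally expressed, FACS-sorted into six equal bins by GFP/DsRed ratio, decoded by Illumina sequencing, PSI is the read-weighted mean bin number.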

Row | Sequence | protein stability index [1] | protein stability index [2] | protein stability index (treatment: DMSO, c terminus: native) | protein stability index (treatment: MLN4924 1 uM, 8 h, c terminus: native)
1 | DVTDEHGEREPFAETDEHTGANTK [FAM9B] | 5.49 ± 0.12 | 5.5 ± 0.065 | – | –
2 | HSSWTPPNAQYWSQFHSVRPQGPQ [DNAJC4] | 3.23 ± 0.053 | 3.34 ± 0.22 | – | –
3 | VITLDPQTASRSLVLSEDRKSVRY [TRIM15] | 3.44 ± 0.2 | 3.64 ± 0.14 | – | –
4 | QRTHTGEKPYKCPECGEIFAHSSN [ZNF263] | 3.6 ± 0.37 | 4.07 ± 0.47 | – | –
5 | DILMEFGHLFPPPTPIFAGGANDR [WSB1] | 2.41 ± 0.46 | 2.51 ± 0.45 | – | –
6 | SASASTTTTVTAVTAEVDLFGDAF [SNAP91] | 4.28 ± 0.28 | 4.28 ± 0.29 | – | –
7 | TIVEEVQDGKVISSREQVHQTTR [KRT17] | – | – | 5.03 ± 0.23 | 5.08 ± 0.25
8 | YRFYFYMWKFVSPLCMAVLTTASI [SLC6A17] | – | 4.42 ± 0.71 | – | –
9 | EAFYYIHNLVVACEIQVRTLASAG [ADD1] | 2.93 ± 0.63 | 2.98 ± 0.57 | – | –
10 | FVADEGICYLPHWMMQNLLLEEGG [UFD1] | 2.36 ± 0.62 | 2.28 ± 0.38 | – | –
11 | PGPPSAPPPPPKEGHQEGLVELPA [SCNN1D] | 5.46 ± 0.23 | 5.47 ± 0.17 | – | –
12 | RAASAMQFFTKGYQETISDVLNDA [GCH1] | 3.38 ± 0.12 | 3.53 ± 0.072 | – | –
13 | KFFFKSMDDDFGVVKEEISDDNAK [DVL3] | 4.76 ± 0.19 | 4.81 ± 0.099 | – | –
14 | ALSLIRFPLMTIEEFAAGPAQSGI [BTBD1] | 2.09 ± 0.35 | 2.04 ± 0.13 | – | –
15 | YVEVKEGKTWKQICDKHWTAKNSR [LOXL2] | 2.62 ± 0.8 | 3.28 ± 0.61 | – | –
16 | THLLKQGRSSMGTGLSGGKRPSQE [CRY1] | 4.35 ± 0.18 | 4.53 ± 0.33 | – | –
17 | RTTSVRCRGIPRGPVRPAIPPPLS [NEK8] | 3.37 ± 0.1 | 3.64 ± 0.23 | – | –
18 | PDEERPLRRPRPVQRTQSVPVRRP [RASAL3] | 5.19 ± 0.27 | 5.21 ± 0.18 | – | –
19 | RGKKLMVLTEPILIETYTGLMSFI [TPRG1] | 2.95 ± 0.34 | 2.6 ± 0.48 | – | –
20 | CQILELLNAELEEKMMQEAEKLKA [CCDC89] | 3.76 ± 0.26 | 3.65 ± 0.17 | – | –
21 | KKTHETLSHAGQKATAAFSNVGTA [TPD52L1] | 4.44 ± 0.28 | 4.34 ± 0.21 | – | –
22 | SGRKNSTSKDLVTLGASSLREERG [C6orf223] | 4.77 ± 0.099 | 4.87 ± 0.26 | – | –
23 | AFHEPQVGLIQAAQQLLCDEQAPQ [DFFB] | 4.64 ± 0.18 | 4.92 ± 0.18 | – | –

Row | Sequence | protein stability index [1] | protein stability index [2] | protein stability index (treatment: DMSO, c terminus: native) | protein stability index (treatment: MLN4924 1 uM, 8 h, c terminus: native)
24 | DNHNLIERRRRFNINDRIKELGTL [TFE3] | 3.33 ± 0.13 | 3.69 ± 0.22 | – | –
25 | AGKLRLLREMCALSFQEELLYWGI [KCNG1] | 2.88 ± 0.5 | 2.34 ± 0.24 | – | –
26 | KYSFLQFDPAPRRGEPHVTRRTPD [PPP2CA] | 4.04 ± 0.27 | 3.85 ± 0.19 | – | –
27 | MDVAISNNKKWILSASKDRTMRLW [WDR88] | 2.38 ± 0.19 | 2.35 ± 0.32 | – | –
28 | VRNNRSIIKQLKDVFERDWYSPYA [PLD5] | 2.41 ± 0.54 | 2.41 ± 0.21 | – | –
29 | SVGHNWRKRMGTRRGRHEQSPTSR [C22orf15] | 4.32 ± 0.065 | 4.49 ± 0.25 | – | –
30 | VVNHLSCDEARNHYGGVVSLIPLI [SPACA9] | 2.2 ± 0.14 | 2.12 ± 0.24 | – | –
31 | GECRQMSSSSQIGNDSFQLQVTED [CLCN6] | 5.06 ± 0.22 | 5.09 ± 0.25 | – | –
32 | LASDKTSAGNAPLNEEINIASSDS [C18orf25] | 5.48 ± 0.17 | 5.46 ± 0.16 | – | –
33 | AIELFHSYRETRRKEGIVKLKPHE [PTPN9] | 3 ± 0.2 | 3.25 ± 0.27 | – | –
34 | RSIRQYYKKGIIRKPDISQRLVYQ [SPDEF] | 2.84 ± 0.24 | 2.97 ± 0.42 | – | –
35 | NKRVGMYLEGFDPFNQSTFNNVVE [DLC1] | 3.09 ± 0.24 | 3.23 ± 0.2 | – | –
36 | CGFGGGAGSVFGGGFGGGVGGGFG [KRT15] | 2.27 ± 0.49 | 2.77 ± 0.23 | – | –
37 | GEDTRLSASEMKQLIDNILEESDI [CIB1] | 5.27 ± 0.27 | 5.26 ± 0.25 | – | –
38 | EEHESGIEQFSESHAIHVEEQSDQ [IQUB] | 5.61 ± 0.12 | 5.56 ± 0.11 | – | –
39 | IKCETSPPSSPRTLRLEKLGHPAL [PPFIA4] | 3.48 ± 0.35 | 3.56 ± 0.22 | – | –
40 | VLTDSEGWILIDRCGKHFGTILNY [KCTD10] | 2.37 ± 0.59 | 2.31 ± 0.2 | – | –
41 | TVILIESTNEITYGLPIMVTLMVA [CLCN6] | 3.47 ± 0.47 | 3.32 ± 0.29 | – | –
42 | DAVGMLGIEEVTYENCLQALADVE [NLN] | 4.25 ± 0.27 | 3.9 ± 0.34 | – | –
43 | DILPRWAIIGWLLTTCTSNVAASN [INTS3] | 3.24 ± 0.47 | 3.08 ± 0.51 | – | –
44 | LETMARNEVIADINCKGRSKSNLG [OSBPL1A] | 4.46 ± 0.39 | 4.38 ± 0.39 | – | –
45 | VNEFSLKGVDFQKFCMNGAALCAL [ETS1] | 2.32 ± 0.76 | 2.3 ± 0.033 | – | –
46 | LFFPVIYDVKYLMKSCKNLKGGLQ [CNOT7] | 2.72 ± 0.35 | 2.5 ± 0.28 | – | –

Row | Sequence | protein stability index [1] | protein stability index [2] | protein stability index (treatment: DMSO, c terminus: native) | protein stability index (treatment: MLN4924 1 uM, 8 h, c terminus: native)
47 | TGSYNNFFRMFDRNTKRDVTLEAS [PPP2R2B] | 3.1 ± 0.26 | 3.47 ± 0.33 | – | –
48 | LSAASPDTGHDSDKSDQSLPNASA [TRAF3IP2] | 5.53 ± 0.28 | 5.51 ± 0.13 | – | –
49 | YQPKRYALSPKTTITMAHLLAARE [FAM98B] | 2.31 ± 0.091 | 2.6 ± 0.39 | – | –
50 | HYSLLTSQPLDREATSHYIIELLA [PCDHGC5] | 2.36 ± 0.13 | 2.63 ± 0.32 | – | –
51 | SASEMKQLIDNILEESDIDRDGTI [CIB1] | 5.31 ± 0.27 | 5.45 ± 0.2 | – | –
52 | PTWWPLPTQVPAAEDYLTWKEWGF [SPAG8] | 2.58 ± 0.18 | 2.35 ± 0.35 | – | –
53 | LEESDIDRDGTINLSEFQHVISRS [CIB1] | 4.69 ± 0.24 | 4.75 ± 0.084 | – | –
54 | HQRTHTGEKPFTCHECGKKFSQNS [ZNF75A] | 3.14 ± 0.27 | 3.47 ± 0.33 | – | –
55 | AEKCLDFLVDMFNDEIEEVRLQSI [INTS4] | 2.94 ± 0.16 | 2.94 ± 0.4 | – | –
56 | SRREREPEPPAAVDFLEPDSGTCP [FCHO1] | 5.43 ± 0.22 | 5.44 ± 0.33 | – | –
57 | AAALLSNTTCQTENRLSVFFSVIF [PTGFR] | 2.43 ± 0.35 | 2.33 ± 0.18 | – | –
58 | GMLCSFRIPGAWSCAWSLNIQANN [DCAF4] | 2.69 ± 0.8 | 2 ± 0.29 | – | –
59 | LELLLDASALTLVLGGRRLRRAWF [SCNN1D] | 2.94 ± 0.81 | 2.4 ± 0.58 | – | –
60 | VNLQRFGMNGQMLCNLGKERFLEL [ETS2] | 2.27 ± 0.36 | 2.27 ± 0.33 | – | –
61 | ESGVHGALLALDENFDHNTLALIL [PPFIA4] | 2.75 ± 0.17 | 2.96 ± 0.27 | – | –
62 | SEPFLTPYLLGPDKNLTEREVFNE [SLC19A2] | 4.8 ± 0.053 | 4.83 ± 0.062 | – | –
63 | AHIHLQQLTCFSITCSSTMSYSCC [KRT34] | 3.37 ± 0.64 | 2.95 ± 0.26 | – | –
64 | KRNFISSKSKQPAGHRRPAGGIRE [C22orf31] | 4.07 ± 0.11 | 3.99 ± 0.22 | – | –
65 | TRRAQADLAYQLQVAKTKQQIEEQ [FLOT1] | 4.82 ± 0.19 | 4.8 ± 0.2 | – | –
66 | RKWHKASNYIFVAIFWIVFLLLIV [P2RY14] | 3.34 ± 0.35 | 3.43 ± 0.17 | – | –
67 | KNKPKMNYEKLSRGLRYYYDKNII [ETS1] | 2.71 ± 1.1 | 2.17 ± 0.28 | – | –
68 | RDSSFLISGGFDRTVAIWDVAEGY [WDR88] | 2.71 ± 0.16 | 2.86 ± 0.23 | – | –
69 | NMMKVLRGHQNWVYSCAFSPDSSM [WSB1] | 2.37 ± 0.96 | 2.64 ± 0.54 | – | –

Row | Sequence | protein stability index [1] | protein stability index [2] | protein stability index (treatment: DMSO, c terminus: native) | protein stability index (treatment: MLN4924 1 uM, 8 h, c terminus: native)
70 | ESDVKHRTRDYKKTSLAPYVKVFE [PRIM1] | 3.39 ± 0.33 | 3.62 ± 0.38 | – | –
71 | LFPQWHLPIKIAAIIASLTFLYTL [STEAP1] | 3.39 ± 0.8 | 3.13 ± 0.48 | – | –
72 | AIIRERSSCVKILLDHNANIDIQN [ASB7] | 2.52 ± 0.4 | 2.64 ± 0.26 | – | –
73 | FRCPTCRHEVIMDRHGVYGLQRNL [TRIM63] | 2.31 ± 0.3 | 2.83 ± 0.52 | – | –
74 | SSNLGQHQRIHTGEKPFECNECGK [ZNF232] | 4.78 ± 0.22 | 5.01 ± 0.19 | – | –
75 | SMDIARGLMVTCGTDRIVKIWDMT [WDFY1] | 2.25 ± 0.43 | 1.92 ± 0.33 | – | –
76 | SGDAAAQPAFTGIKGKEGSALTEG [EPB41L3] | 5.55 ± 0.24 | 5.32 ± 0.33 | – | –
77 | SKQLTLEQLRREKIDLENTLEQEQ [CCDC6] | 5.43 ± 0.26 | 5.2 ± 0.11 | – | –
78 | QAQPLRTTSTLASSLPGHAAKTLP [EHMT1] | 4.33 ± 0.16 | 4.4 ± 0.29 | – | –
79 | EMREIRRKLRELQLRNCLRILMGE [BEX3] | 2.35 ± 0.38 | 2.28 ± 0.38 | – | –
80 | PFYPEVELNFISVFWPQLPNGLEA [MMP1] | 2.61 ± 0.28 | 2.62 ± 0.52 | – | –
81 | SLRTLKPEGNILRDRFKSFQRRNM [NOP53] | 3.22 ± 0.23 | 3.21 ± 0.21 | – | –
82 | ALSEILRIGKRPDLLTFVQNLCKG [NEUROD6] | 2.49 ± 0.46 | 2.29 ± 0.21 | – | –
83 | CPVEYNNDTNSFTVDCEPSDLFRL [CDS2] | 3.94 ± 0.21 | 4.03 ± 0.17 | – | –
84 | YFLELTQSFIIPLERYVASLMPLQ [DENND6A] | 2.56 ± 0.11 | 3.15 ± 0.33 | – | –
85 | VLVNLVPAHKNLNKQAYDLAKALL [PDS5B] | 3.47 ± 0.59 | 3.07 ± 0.89 | – | –
86 | TVPKNDADDESETPEELEEEIPVV [GLT8D2] | 5.63 ± 0.12 | 5.53 ± 0.26 | – | –
87 | GSFHGPGHISLRRENSSDSPKELK [DLC1] | 4.99 ± 0.39 | 5.09 ± 0.41 | – | –
88 | VLTEPILIETYTGLMSFIGNRNKL [TPRG1] | 2.21 ± 0.36 | 2.27 ± 0.51 | – | –
89 | DPGQDLVPKQAIQVQEADEAGWGG [DLX1] | 5.18 ± 0.28 | 5.22 ± 0.4 | – | –
